Measured values published in patent US20250304650A1.
Residue numbers refer to the chain shown, from its start. Numbers in names are those of the source.

B1: anti-NGF feline IgG1a, Fc variant I377Y (antibody, part only; not given: anti-NGF variable domains, not shown: another chain or arm of the molecule; small tags and cut ends)
Fc: PPEMLGGPSIFIFPPKPKDTLSISRTPEVTCLVVDLGPDDSDVQITWFVDNTQVYTAKTSPREEQFNSTYRVVSVLPILHQDWLKGKEFKCKVNSKSLPSPIERTISKAKGQPHEPQVYVLPPAQEELSRNKVSVTCLIKSFHPPDYAVEWEITGQPEPENNYRTTPPQLDSDGTYFVYSKLSVDRSHWQRGNTYTCSVSHEALHSHHTQKSLTQSPGK
B2: anti-NGF feline IgG1a, Fc variant R334D (antibody, part only; not given: anti-NGF variable domains, light chain, not shown: another chain or arm of the molecule; small tags and cut ends)
Fc: B1 Fc with R104D, Y147I
B3: anti-NGF feline IgG1a, Fc variant S428L, E380T, S434R (antibody, part only; not given: anti-NGF variable domains, not shown: another chain or arm of the molecule; small tags and cut ends)
Fc: B1 Fc with Y147I, E150T, S200L, S206R
B4: anti-NGF feline IgG1a, Fc variant S434Y, S254R (antibody, part only; not given: anti-NGF variable domains, light chain, not shown: another chain or arm of the molecule; small tags and cut ends)
Fc: B1 Fc with S24R, Y147I, S206Y
B5: anti-NGF feline IgG1a, Fc variant S428H, T289H (antibody, part only; not given: anti-NGF variable domains, light chain, not shown: another chain or arm of the molecule; small tags and cut ends)
Fc: B1 Fc with T59H, Y147I, S200H
B6: anti-NGF feline IgG1a, Fc variant R301L, E380V, T437L (antibody, part only; not given: anti-NGF variable domains, light chain, not shown: another chain or arm of the molecule; small tags and cut ends)
Fc: B1 Fc with R71L, Y147I, E150V, T209L
B7: anti-NGF feline IgG1a, Fc variant S428Y, S254R (antibody, part only; not given: Anti-NGF variable domains, not shown: another chain or arm of the molecule; small tags and cut ends)
Fc: B1 Fc with S24R, Y147I, S200Y
B8: anti-NGF feline IgG1a, Fc variant S428L, E380D, S434R (antibody, part only; not given: Anti-NGF variable domains, not shown: another chain or arm of the molecule; small tags and cut ends)
Fc: B1 Fc with Y147I, E150D, S200L, S206R
B9: anti-NGF feline IgG1a, Fc variant Q311V (antibody, part only; not given: anti-NGF variable domains, light chain, not shown: another chain or arm of the molecule; small tags and cut ends)
Fc: B1 Fc with Q81V, Y147I
B10: anti-NGF feline IgG1a, Fc variant R392E (antibody, part only; not given: anti-NGF variable domains, light chain, not shown: another chain or arm of the molecule; small tags and cut ends)
Fc: B1 Fc with Y147I, R164E
B11: anti-NGF feline IgG1a, Fc variant S254K (antibody, part only; not given: Anti-NGF variable domains, not shown: another chain or arm of the molecule; small tags and cut ends)
Fc: B1 Fc with S24K, Y147I
B12: anti-NGF feline IgG1a, Fc variant S426H (antibody, part only; not given: anti-NGF variable domains, not shown: another chain or arm of the molecule; small tags and cut ends)
Fc: B1 Fc with Y147I, S198H
B13: anti-NGF feline IgG1a, Fc variant S428L, I383L (antibody, part only; not given: anti-NGF variable domains, light chain, not shown: another chain or arm of the molecule; small tags and cut ends)
Fc: B1 Fc with Y147I, I153L, S200L
B14: anti-NGF feline IgG1a, Fc variant S252Y (antibody, part only; not given: Anti-NGF variable domains, not shown: another chain or arm of the molecule; small tags and cut ends)
Fc: B1 Fc with S22Y, Y147I
B15: anti-NGF feline IgG1a, Fc variant E293H (antibody, part only; not given: anti-NGF variable domains, light chain, not shown: another chain or arm of the molecule; small tags and cut ends)
Fc: B1 Fc with E63H, Y147I
B16: anti-NGF feline IgG1a, Fc variant S252R, A378E (antibody, part only; not given: Anti-NGF variable domains, not shown: another chain or arm of the molecule; small tags and cut ends)
Fc: B1 Fc with S22R, Y147I, A148E
B17: anti-NGF feline IgG1a, Fc variant S434Y (antibody, part only; not given: Anti-NGF variable domains, not shown: another chain or arm of the molecule; small tags and cut ends)
Fc: B1 Fc with Y147I, S206Y
B18: anti-NGF feline IgG1a, Fc variant S428H (antibody, part only; not given: anti-NGF variable domains, light chain, not shown: another chain or arm of the molecule; small tags and cut ends)
Fc: B1 Fc with Y147I, S200H
B19: anti-NGF feline IgG1a, Fc variant Q311R (antibody, part only; not given: Anti-NGF variable domains, not shown: another chain or arm of the molecule; small tags and cut ends)
Fc: B1 Fc with Q81R, Y147I
B20: anti-NGF feline IgG1a, Fc variant L309V (antibody, part only; not given: anti-NGF variable domains, light chain, not shown: another chain or arm of the molecule; small tags and cut ends)
Fc: B1 Fc with L79V, Y147I
B21: anti-NGF feline IgG1a, Fc variant S428L, N389c-R (antibody, part only; not given: anti-NGF variable domains, light chain, not shown: another chain or arm of the molecule; small tags and cut ends)
Fc: B1 Fc with Y147I, N161R, S200L
B22: anti-NGF feline IgG1a, Fc variant T260E, L309E, Q355L (antibody, part only; not given: anti-NGF variable domains, not shown: another chain or arm of the molecule; small tags and cut ends)
Fc: B1 Fc with T30E, L79E, Q125L, Y147I
B23: anti-NGF feline IgG1a, Fc variant L309Y (antibody, part only; not given: anti-NGF variable domains, light chain, not shown: another chain or arm of the molecule; small tags and cut ends)
Fc: B1 Fc with L79Y, Y147I
B24: anti-NGF feline IgG1a, Fc variant R334D, S428R (antibody, part only; not given: anti-NGF variable domains, light chain, not shown: another chain or arm of the molecule; small tags and cut ends)
Fc: B1 Fc with R104D, Y147I, S200R

Target: feline FcRn (FCN-F82W3, Acrobiosystems) (feline)
Assay: SPR Carterra, IgG coupled, pH 6.0

| Binder | Kd | koff | kon |
| --- | --- | --- | --- |
| B1 | 61.4 nM | 0.0514 s⁻¹ | 837000 M⁻¹ s⁻¹ |
| B2 | 133 nM | 0.0561 s⁻¹ | 423000 M⁻¹ s⁻¹ |
| B3 | 3.8 nM | 0.012 s⁻¹ | 3.17e+06 M⁻¹ s⁻¹ |
| B4 | 2.1 nM | 0.00568 s⁻¹ | 2.75e+06 M⁻¹ s⁻¹ |
| B5 | 149 nM | 0.0526 s⁻¹ | 352000 M⁻¹ s⁻¹ |
| B6 | 10.7 nM | 0.0123 s⁻¹ | 1.15e+06 M⁻¹ s⁻¹ |
| B7 | 48.1 nM | 0.0265 s⁻¹ | 552000 M⁻¹ s⁻¹ |
| B8 | 8 nM | 0.00973 s⁻¹ | 1.22e+06 M⁻¹ s⁻¹ |
| B9 | 80.4 nM | 0.0505 s⁻¹ | 629000 M⁻¹ s⁻¹ |
| B10 | 24.5 nM | 0.0324 s⁻¹ | 1.33e+06 M⁻¹ s⁻¹ |
| B11 | 107 nM | 0.0557 s⁻¹ | 521000 M⁻¹ s⁻¹ |
| B12 | 171 nM | 0.0602 s⁻¹ | 352000 M⁻¹ s⁻¹ |
| B13 | 9.9 nM | 0.0162 s⁻¹ | 1.63e+06 M⁻¹ s⁻¹ |
| B14 | 9.8 nM | 0.0095 s⁻¹ | 974000 M⁻¹ s⁻¹ |
| B15 | 146 nM | 0.0665 s⁻¹ | 455000 M⁻¹ s⁻¹ |
| B16 | 35.3 nM | 0.00927 s⁻¹ | 262000 M⁻¹ s⁻¹ |
| B17 | 5.2 nM | 0.00629 s⁻¹ | 1.22e+06 M⁻¹ s⁻¹ |
| B18 | 159 nM | 0.0618 s⁻¹ | 389000 M⁻¹ s⁻¹ |
| B19 | 59.2 nM | 0.0116 s⁻¹ | 196000 M⁻¹ s⁻¹ |
| B20 | 127 nM | 0.045 s⁻¹ | 353000 M⁻¹ s⁻¹ |
| B21 | 9.6 nM | 0.0109 s⁻¹ | 1.14e+06 M⁻¹ s⁻¹ |
| B22 | 9.9 nM | 0.00977 s⁻¹ | 983000 M⁻¹ s⁻¹ |
| B23 | 196 nM | 0.118 s⁻¹ | 600000 M⁻¹ s⁻¹ |
| B24 | 81.7 nM | 0.0493 s⁻¹ | 603000 M⁻¹ s⁻¹ |
